The data set concerns the molecule itself. Put plainly: X-ray crystal structure (self-association of subunits). The text has this:
Native data, to 2.2 Å resolution, were collected at station 9.6 of the S.R.S. Daresbury, from crystals frozen at liquid nitrogen temperatures in a cryo-protecting solution comprising of mother liquor plus 20% glycerol. The structure was solved by multiple isomorphous replacement with anomalous scattering using three heavy atom derivatives. Table 1 details data collection and heavy atom statistics; the HKL package (Otwinowski, Z & Minor, W (1997) Methods Enzymol 276, 307-326), and the CCP4 (Acta Crystallogr D 50 (1994) 760-763) software suite were used for data processing and analysis. Heavy atom positions were derived from difference Patterson and difference Fourier calculations. The SHARP program (Fortelle E. d. -L. & Bricogne, G. (1997) Methods Enzymol 276, 472-494) was used to refine the heavy atom parameters and obtain initial phases, further heavy atom sites were identified from the residual map analysis available in SHARP. […]
The initial model of AMPDA was traced using the QUANTA package (Molecular Simulations Inc) and refined using all data to 2.2 Å with X-PLOR (Briinger, A. T. (1993) X-PLOR Version 3.1 A system for X-ray crystallography and NMR, Yale University Press, New Haven, Conn.). […] The current model has a Rcryst=21.2% and a Rfree=25.4%, calculated on 5% of the data set (Branger, A. T. (1992) Nature 355, 472-475).

B1: rabbit AMP deaminase (AMPDA) catalytic domain, starting at Leu96 (enzyme)
chain: LSHIDEYISLSPTYQTVPDFQRVQITGDYASGVTVEDFEIVCKGLYRALCIREKYMLKSFQRFPKTPSKYLRSIEGTAWKANESSYPVFTPALKKGEDPFRTDNLPENLGYHLKMKDGVVYIYANEAAAGKDEPKPLLYPNMEEFLDDMNFLLALIAQGPVKTYTHRRLKFLSSKFQVHQMLNEMDELKELKNNPHRDFYNCRKVDTHIHAAACMNQKHLLRFIKKSYQVDADRVVYSTKEKNLTLKQLFDKLKLHPYDLTVDSLDVHAGRQTFQRFDKFNDKYNPVGASELRDLYLKTDNYINGEYFATIIKEVGADLVDAKYQHAEPRLSIYGRSPDEWSKLSSWFVRNRIYSSNMTWMIQVPRIYDVFRSKNFLPHFGKMLENVFMPVFEATINPQAHPELSVFLKHITGFDSVDDESKHSGHMFSSKSPKPQEWTLEKNPSYTYYAYYMYANIMVLNSLRKERGMNTFLFRPHCGEVGALTHLMTAFMTADNISHGLNLKKSPVLQYLFFLAQIPIAMSPLSNNSLFLEYAKNPFLDFLQKGLMISLSTDDPMQFHFTKEPLMEEYAIAAQVFKLSTCDMCEVARNSVLQCGISHEEKAKFLGNNYLEEGPIGNDIRKTNVAQIRMAYRYETWCYELNLIAEGLKSTE
notes: Purified from rabbit skeletal muscle; also called rabbit AMPDA; truncated enzyme
Consider B1, for which the binding result is listed as “binds”.

The values above are taken from patent publication US20040050316A1 (published 2004).
